Like-named read-outs stand apart in the source and are kept apart here.

For orientation: Kd means a measure of binding affinity in units of concentration.

Series [1] addresses recombinant F-WT DRADA protein (full-length 140 kD human DRADA protein carrying an epitope-tag peptide FLAG at the NH2-terminal) (human).
For series [2], the target named is T1, DRADA (dsRNA adenosine deaminase, purified 93/88/83 kD forms) (Bos taurus) (UniProt F1MUM9).
T1 sequence: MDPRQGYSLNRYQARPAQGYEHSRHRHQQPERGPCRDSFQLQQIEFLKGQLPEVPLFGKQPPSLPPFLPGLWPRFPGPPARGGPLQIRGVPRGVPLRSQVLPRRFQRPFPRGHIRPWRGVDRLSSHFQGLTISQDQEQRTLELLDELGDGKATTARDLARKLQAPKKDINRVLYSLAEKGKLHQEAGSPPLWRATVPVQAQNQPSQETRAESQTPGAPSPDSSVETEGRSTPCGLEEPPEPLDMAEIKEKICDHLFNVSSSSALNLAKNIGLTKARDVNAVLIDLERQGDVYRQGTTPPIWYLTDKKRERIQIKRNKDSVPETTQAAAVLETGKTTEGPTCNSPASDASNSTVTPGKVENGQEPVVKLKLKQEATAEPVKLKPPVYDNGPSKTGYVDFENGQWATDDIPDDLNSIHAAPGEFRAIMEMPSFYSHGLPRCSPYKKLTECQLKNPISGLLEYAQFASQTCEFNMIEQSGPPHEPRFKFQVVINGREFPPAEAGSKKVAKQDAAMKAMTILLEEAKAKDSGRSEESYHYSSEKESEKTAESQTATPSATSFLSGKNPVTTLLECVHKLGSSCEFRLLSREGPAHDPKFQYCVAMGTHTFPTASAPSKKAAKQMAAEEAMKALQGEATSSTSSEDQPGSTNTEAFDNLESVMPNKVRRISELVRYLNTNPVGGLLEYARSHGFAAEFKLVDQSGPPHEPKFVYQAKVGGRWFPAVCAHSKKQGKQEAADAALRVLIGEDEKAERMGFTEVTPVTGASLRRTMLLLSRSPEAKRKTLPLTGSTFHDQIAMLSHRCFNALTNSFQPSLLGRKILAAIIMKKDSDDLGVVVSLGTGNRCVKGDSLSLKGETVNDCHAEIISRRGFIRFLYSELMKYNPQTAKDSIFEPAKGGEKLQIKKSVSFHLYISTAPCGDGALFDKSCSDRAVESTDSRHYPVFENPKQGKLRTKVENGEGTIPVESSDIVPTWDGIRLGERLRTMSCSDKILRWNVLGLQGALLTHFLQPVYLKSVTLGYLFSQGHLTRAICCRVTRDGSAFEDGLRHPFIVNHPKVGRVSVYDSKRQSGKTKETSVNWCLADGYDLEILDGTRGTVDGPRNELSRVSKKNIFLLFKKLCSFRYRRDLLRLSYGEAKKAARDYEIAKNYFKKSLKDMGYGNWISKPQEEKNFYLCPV
The note with it: assay not described; species/form of DRADA not stated in the passage.

The target in series [3] is T2, F-WT DRADA (Homo sapiens) (UniProt P55265).
T2 sequence: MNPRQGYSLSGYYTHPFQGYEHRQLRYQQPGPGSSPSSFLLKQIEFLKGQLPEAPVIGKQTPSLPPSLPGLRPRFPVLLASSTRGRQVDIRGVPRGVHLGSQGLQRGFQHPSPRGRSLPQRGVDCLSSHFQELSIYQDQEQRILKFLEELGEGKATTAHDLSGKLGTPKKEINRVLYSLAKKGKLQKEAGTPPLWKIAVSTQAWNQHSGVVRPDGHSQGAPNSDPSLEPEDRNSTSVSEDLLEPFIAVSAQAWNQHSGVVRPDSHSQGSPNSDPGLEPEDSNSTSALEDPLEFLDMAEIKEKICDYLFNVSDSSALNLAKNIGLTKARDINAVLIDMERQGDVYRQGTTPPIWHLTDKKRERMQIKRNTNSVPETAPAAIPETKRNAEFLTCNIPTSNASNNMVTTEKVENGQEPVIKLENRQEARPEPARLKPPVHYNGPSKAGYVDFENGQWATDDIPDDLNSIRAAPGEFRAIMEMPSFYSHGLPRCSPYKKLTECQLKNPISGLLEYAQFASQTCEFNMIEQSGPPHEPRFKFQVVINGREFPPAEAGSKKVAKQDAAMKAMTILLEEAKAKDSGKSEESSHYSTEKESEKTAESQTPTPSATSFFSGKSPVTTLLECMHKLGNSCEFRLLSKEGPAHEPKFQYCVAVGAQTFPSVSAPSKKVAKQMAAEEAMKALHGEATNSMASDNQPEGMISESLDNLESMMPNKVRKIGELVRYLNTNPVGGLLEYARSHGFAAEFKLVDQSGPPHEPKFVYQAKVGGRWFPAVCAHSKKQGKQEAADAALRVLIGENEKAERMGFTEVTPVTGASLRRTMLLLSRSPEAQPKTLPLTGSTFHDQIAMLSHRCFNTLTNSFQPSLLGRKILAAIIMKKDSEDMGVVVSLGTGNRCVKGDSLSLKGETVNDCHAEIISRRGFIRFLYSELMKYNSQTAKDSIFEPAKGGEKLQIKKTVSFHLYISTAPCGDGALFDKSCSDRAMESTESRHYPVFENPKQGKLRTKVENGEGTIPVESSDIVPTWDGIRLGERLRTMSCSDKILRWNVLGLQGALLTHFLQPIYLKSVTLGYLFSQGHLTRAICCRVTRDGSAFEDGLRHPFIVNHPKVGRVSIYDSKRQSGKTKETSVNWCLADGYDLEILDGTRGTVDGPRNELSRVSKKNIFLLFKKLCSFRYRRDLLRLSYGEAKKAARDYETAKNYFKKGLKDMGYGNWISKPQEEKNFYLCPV
To be noted: editing at intronic +60 site by DRADA alone; no Q/R editing alone, up to 34% Q/R with 293 extract cofactor.

For series [4], the target named is recombinant F-WT DRADA protein (full-length 140 kD human DRADA protein carrying an epitope-tag peptide FLAG at the NH2-terminal) (human). This is another data set of the same source.

On to “293 nuclear extract (unidentified cofactor protein(s) of 293 human embryonic kidney cells) (pool or library)”, for which the Q/R site editing of synthetic GluR-B RNA (in vitro editing, primer extension assay) in series [1] turned out to be 14%.
Substance 575 bp dsRNA returned a Kd in series [2] of 230 pM.
Substance GluR-B Bmini RNA (745 nt) gave an activity in series [3] of less than 79%.
In the case of “HeLa nuclear extract (unidentified cofactor protein(s)) (pool or library)”, in series [4], the Q/R site editing of synthetic GluR-B RNA (in vitro editing, primer extension assay) worked out at 63%.

Source of the values: US5763174.
